Patent publication US20220259593A1, “CONTROL OF MAMMALIAN GENE DOSAGE USING CRISPR” (The Regents of the University of California, priority 2019, published 2022)
Changes are numbered by the printed parent chain.

Tested on: K562 CRISPRi cells
Assay: Constant region variant library pooled growth screen, K562
Assay type: cell-based, human
Conditions: sgRNA constant region variants, un-modified constant region cr995
Procedure, shortened: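 Pooled library transduced into K562 CRISPRi cells in duplicate, puromycin-selected, grown at >2000× coverage and sampled after 4 to 8 days. Phenotypes per targeting sequence:constant region pair were normalized to the unmodified-scaffold pairing to give relative activity.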

[1] = relative to the original, CRISPRi
[2] = activity relative to the original

B1: cr659 (nucleic acid)
guide: GTTTAAGAGCTAAGCTGGAAACAGCATAGCAAGTTTACATAAGGCTAGTCCGTTATCAACTTGAAAAAGTGGCACCGAGTCGGTGCT
modifications: listed as DNA, chemistry not fully specified
Question: B1 was tested. Which Mean relative activity [1] did it give?
Answer: The Mean relative activity was 0.504.

B2: cr101 (nucleic acid)
guide: B1 guide with C38A, A74G
modifications: listed as DNA, chemistry not fully specified
Question: Which Mean relative activity [2] does the source give for B2 here?
Answer: Its Mean relative activity is 1.048.

B3: cr620 (nucleic acid)
guide: B1 guide with C38A, C45G, G48C, C73A, C76T, G82A, G85T
modifications: listed as DNA, chemistry not fully specified
Question: With B3 as the molecule, how does the Mean relative activity [1] read?
Answer: Its Mean relative activity is 0.4842.

B4: cr369 (nucleic acid)
guide: B1 guide with C38A, C60A
modifications: listed as DNA, chemistry not fully specified
Question: Which Mean relative activity [1] does the source give for B4 here?
Answer: Its Mean relative activity is 0.4754.

B5: cr485 (nucleic acid)
guide: B1 guide with C38A, A47T, G71T, A78T
modifications: listed as DNA, chemistry not fully specified
Question: How did the Mean relative activity [1] turn out when B5 was run?
Answer: Its Mean relative activity is 0.4419.

B6: cr809 (nucleic acid)
guide: B1 guide with C38A, T61G, A68C, C73A, G85T
modifications: listed as DNA, chemistry not fully specified
Question: With B6 as the molecule, how does the Mean relative activity [2] read?
Answer: Its Mean relative activity is 1.042.

B7: cr175 (nucleic acid)
guide: B1 guide with C38A, A58C
modifications: listed as DNA, chemistry not fully specified
Question: For B7, which Mean relative activity [1] is on record?
Answer: Its Mean relative activity is 0.4914.

B8: cr240 (nucleic acid)
guide: B1 guide with C38A, T56A
modifications: listed as DNA, chemistry not fully specified
Question: How did the Mean relative activity [2] turn out when B8 was run?
Answer: Its Mean relative activity is 1.046.

B9: cr148 (nucleic acid)
guide: B1 guide with T34C, C38A, A74G, T84C
modifications: listed as DNA, chemistry not fully specified
Question: How did the Mean relative activity [1] turn out when B9 was run?
Answer: Its Mean relative activity is 0.4276.

B10: cr920 (nucleic acid)
guide: B1 guide with C38A, A55G, T56A, A58T
modifications: listed as DNA, chemistry not fully specified
Question: Which Mean relative activity [1] does the source give for B10 here?
Answer: The Mean relative activity was 0.4567.

B11: cr824 (nucleic acid)
guide: B1 guide with C38A, A65C, T80G
modifications: listed as DNA, chemistry not fully specified
Question: For B11, which Mean relative activity [1] is on record?
Answer: Its Mean relative activity is 0.499.

B12: cr405 (nucleic acid)
guide: B1 guide with C38A, G72T, C75G, G77A, C81T, G83C, C86A
modifications: listed as DNA, chemistry not fully specified
Question: B12 was tested. Which Mean relative activity [1] did it give?
Answer: The Mean relative activity was 0.4582.

B13: cr873 (nucleic acid)
guide: B1 guide with T34C, C38A, T62A, A67T
modifications: listed as DNA, chemistry not fully specified
Question: For B13, which Mean relative activity [1] is on record?
Answer: The Mean relative activity was 0.4546.

B14: cr611 (nucleic acid)
guide: B1 guide with C38A, T56G, C57A, G79A
modifications: listed as DNA, chemistry not fully specified
Question: With B14 as the molecule, how does the Mean relative activity [1] read?
Answer: Its Mean relative activity is 0.4954.

B15: cr530 (nucleic acid)
guide: B1 guide with C38A, T49C, T53A, A66C
modifications: listed as DNA, chemistry not fully specified
Question: How did the Mean relative activity [1] turn out when B15 was run?
Answer: The Mean relative activity was 0.4998.

B16: cr120 (nucleic acid)
guide: B1 guide with C38A, A65G, G77C, C81G
modifications: listed as DNA, chemistry not fully specified
Question: B16 was tested. Which Mean relative activity [1] did it give?
Answer: The Mean relative activity was 0.5005.

B17: cr721 (nucleic acid)
guide: B1 guide with C38A, T53C, C57T, G79A
modifications: listed as DNA, chemistry not fully specified
Question: With B17 as the molecule, how does the Mean relative activity [1] read?
Answer: The Mean relative activity was 0.4696.

B18: cr493 (nucleic acid)
guide: B1 guide with C38A, T49C, T56C, C57A
modifications: listed as DNA, chemistry not fully specified
Question: For B18, which Mean relative activity [1] is on record?
Answer: The Mean relative activity was 0.4736.

B19: cr425 (nucleic acid)
guide: B1 guide with C38A, A59T, T61C, A68T, T70C
modifications: listed as DNA, chemistry not fully specified
Question: For B19, which Mean relative activity [1] is on record?
Answer: The Mean relative activity was 0.4409.

B20: cr460 (nucleic acid)
guide: B1 guide with C38A, C45G, G48C, A74T, C76A, G82T, T84A
modifications: listed as DNA, chemistry not fully specified
Question: For B20, which Mean relative activity [1] is on record?
Answer: The Mean relative activity was 0.4381.

B21: cr317 (nucleic acid)
guide: B1 guide with C38A, A42T
modifications: listed as DNA, chemistry not fully specified
Question: Which Mean relative activity [1] does the source give for B21 here?
Answer: Its Mean relative activity is 0.5027.

B22: cr668 (nucleic acid)
guide: B1 guide with C38A, C60G
modifications: listed as DNA, chemistry not fully specified
Question: For B22, which Mean relative activity [1] is on record?
Answer: The Mean relative activity was 0.4445.

B23: cr566 (nucleic acid)
guide: B1 guide with T34C, C38A, T61A, A68T
modifications: listed as DNA, chemistry not fully specified
Question: For B23, which Mean relative activity [1] is on record?
Answer: Its Mean relative activity is 0.4299.

B24: cr758 (nucleic acid)
guide: B1 guide with T34C, C38A, T53C
modifications: listed as DNA, chemistry not fully specified
Question: B24 was tested. Which Mean relative activity [1] did it give?
Answer: The Mean relative activity was 0.4614.

B25: cr124 (nucleic acid)
guide: B1 guide with A32T, C38A, A42T
modifications: listed as DNA, chemistry not fully specified
Question: With B25 as the molecule, how does the Mean relative activity [1] read?
Answer: The Mean relative activity was 0.4757.

B26: cr183 (nucleic acid)
guide: B1 guide with C38A, C45T, G48A, A65G
modifications: listed as DNA, chemistry not fully specified
Question: With B26 as the molecule, how does the Mean relative activity [2] read?
Answer: The Mean relative activity was 1.047.

B27: cr177 (nucleic acid)
guide: B1 guide with C38A, T40G
modifications: listed as DNA, chemistry not fully specified
Question: How did the Mean relative activity [1] turn out when B27 was run?
Answer: The Mean relative activity was 0.4771.

B28: cr682 (nucleic acid)
guide: B1 guide with C38A, G44C, C45G, G48C, C50G
modifications: listed as DNA, chemistry not fully specified
Question: B28 was tested. Which Mean relative activity [1] did it give?
Answer: Its Mean relative activity is 0.4794.

B29: cr904 (nucleic acid)
guide: B1 guide with C38A, G44T, C50A, C60T, G69A, C75A, G83T
modifications: listed as DNA, chemistry not fully specified
Question: How did the Mean relative activity [1] turn out when B29 was run?
Answer: The Mean relative activity was 0.4677.

B30: cr071 (nucleic acid)
guide: B1 guide with A6C, A8G, C38A
modifications: listed as DNA, chemistry not fully specified
Question: With B30 as the molecule, how does the Mean relative activity [1] read?
Answer: The Mean relative activity was 0.475.

B31: cr770 (nucleic acid)
guide: B1 guide with T34C, C38A, C73A, G85T
modifications: listed as DNA, chemistry not fully specified
Question: B31 was tested. Which Mean relative activity [1] did it give?
Answer: Its Mean relative activity is 0.4771.

B32: cr765 (nucleic acid)
guide: B1 guide with C38A, T62G, A67C, C76T, G77C, C81G, G82A
modifications: listed as DNA, chemistry not fully specified
Question: B32 was tested. Which Mean relative activity [1] did it give?
Answer: The Mean relative activity was 0.4931.

B33: cr868 (nucleic acid)
guide: B1 guide with T36C, C38A
modifications: listed as DNA, chemistry not fully specified
Question: For B33, which Mean relative activity [1] is on record?
Answer: The Mean relative activity was 0.4517.

B34: cr163 (nucleic acid)
guide: B1 guide with T34C, C38A
modifications: listed as DNA, chemistry not fully specified
Question: How did the Mean relative activity [1] turn out when B34 was run?
Answer: The Mean relative activity was 0.4662.

B35: cr399 (nucleic acid)
guide: B1 guide with C38A, G82C
modifications: listed as DNA, chemistry not fully specified
Question: B35 was tested. Which Mean relative activity [1] did it give?
Answer: The Mean relative activity was 0.4727.

B36: cr486 (nucleic acid)
guide: B1 guide with C38A, G72A, C73A, C76T, G82A, G85T, C86T
modifications: listed as DNA, chemistry not fully specified
Question: How did the Mean relative activity [1] turn out when B36 was run?
Answer: Its Mean relative activity is 0.4409.

B37: cr016 (nucleic acid)
guide: B1 guide with A6T, C38A
modifications: listed as DNA, chemistry not fully specified
Question: For B37, which Mean relative activity [1] is on record?
Answer: The Mean relative activity was 0.4876.

B38: cr171 (nucleic acid)
guide: B1 guide with C38A, T61C, A65G, A68G
modifications: listed as DNA, chemistry not fully specified
Question: B38 was tested. Which Mean relative activity [2] did it give?
Answer: The Mean relative activity was 1.044.

B39: cr955 (nucleic acid)
guide: B1 guide with C38A, G48A
modifications: listed as DNA, chemistry not fully specified
Question: How did the Mean relative activity [1] turn out when B39 was run?
Answer: The Mean relative activity was 0.4541.

B40: cr190 (nucleic acid)
guide: B1 guide with C38A, T54A, C57T, T80A
modifications: listed as DNA, chemistry not fully specified
Question: Which Mean relative activity [1] does the source give for B40 here?
Answer: The Mean relative activity was 0.5036.

B41: cr866 (nucleic acid)
guide: B1 guide with C38A, G72T, A74C
modifications: listed as DNA, chemistry not fully specified
Question: With B41 as the molecule, how does the Mean relative activity [1] read?
Answer: The Mean relative activity was 0.4434.
